The labels stand for the following.
B1: KCNAB2 (parent)
chain: SSIIHEIDSILGNKPYSKKDYRS

In the supplement of paper PMC10567573 one finds protein stability index data, which are given here for 96 variants.
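Note: lentivirally expressed fusions sorted by FACS into six bins by GFP to DsRed ratio, PSI derived from sequencing read proportions per bin multiplied by bin number.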

The variants in the data set derive from B1. Nature of the data set: protein stability index of a GFP-peptide fusion (GPS, HEK-293T) (PSI 1-6); higher = more stable. As to conditions: c terminus: native.
For the variant SSILHEIDSILGNKPYSKKDYRS [I4L], the protein stability index came to 2.56.

In the case of SSIWHEIDSILGNKPYSKKDYRS [I4W], the protein stability index stood at 1.4.

Turning to SSIMHEIDSILGNKPYSKKDYRS [I4M], the protein stability index came out at 2.59.

SSIHHEIDSILGNKPYSKKDYRS [I4H]: the protein stability index was found to be 2.86.

For SSIGHEIDSILGNKPYSKKDYRS [I4G], the protein stability index worked out at 2.69.

For SSIQHEIDSILGNKPYSKKDYRS [I4Q], the protein stability index turned out to be 4.26.

Turning to SSISHEIDSILGNKPYSKKDYRS [I4S], the protein stability index amounted to 3.25.

In the case of SSIKHEIDSILGNKPYSKKDYRS [I4K], the protein stability index was determined as 2.81.

With SSIRHEIDSILGNKPYSKKDYRS [I4R], the protein stability index was determined as 2.94.

Consider SSIAHEIDSILGNKPYSKKDYRS [I4A], for which the protein stability index came to 3.44.

Regarding SSIDHEIDSILGNKPYSKKDYRS [I4D], the protein stability index was determined as 4.28.

As to SSIEHEIDSILGNKPYSKKDYRS [I4E], the protein stability index was found to be 3.9.

For the variant SSIVHEIDSILGNKPYSKKDYRS [I4V], the protein stability index turned out to be 2.46.

In the case of SSIFHEIDSILGNKPYSKKDYRS [I4F], the protein stability index came out at 1.29.

Turning to SSIYHEIDSILGNKPYSKKDYRS [I4Y], the protein stability index was 2.75.

With SSINHEIDSILGNKPYSKKDYRS [I4N], the protein stability index is 4.51.

For SSIPHEIDSILGNKPYSKKDYRS [I4P], the protein stability index amounted to 4.63.

Consider SSICHEIDSILGNKPYSKKDYRS [I4C], for which the protein stability index was determined as 3.6.

In the case of SSITHEIDSILGNKPYSKKDYRS [I4T], the protein stability index is 3.95.

With SSCIHEIDSILGNKPYSKKDYRS [I3C], the protein stability index was found to be 3.85.

In the case of SSGIHEIDSILGNKPYSKKDYRS [I3G], the protein stability index was 4.46.

As to SSVIHEIDSILGNKPYSKKDYRS [I3V], the protein stability index stood at 3.61.

With SSQIHEIDSILGNKPYSKKDYRS [I3Q], the protein stability index was determined as 2.53.

For SSEIHEIDSILGNKPYSKKDYRS [I3E], the protein stability index is 4.16.

Turning to SSSIHEIDSILGNKPYSKKDYRS [I3S], the protein stability index was 4.63.

As for SSPIHEIDSILGNKPYSKKDYRS [I3P], the protein stability index was determined as 3.96.

Turning to SSNIHEIDSILGNKPYSKKDYRS [I3N], the protein stability index was 4.2.

Take SSRIHEIDSILGNKPYSKKDYRS [I3R]: the protein stability index turned out to be 4.09.

For SSAIHEIDSILGNKPYSKKDYRS [I3A], the protein stability index was 3.94.

For the variant SSHIHEIDSILGNKPYSKKDYRS [I3H], the protein stability index amounted to 4.

SSDIHEIDSILGNKPYSKKDYRS [I3D]: the protein stability index is 4.67.

As for SSMIHEIDSILGNKPYSKKDYRS [I3M], the protein stability index stood at 3.17.

For SSLIHEIDSILGNKPYSKKDYRS [I3L], the protein stability index came out at 2.9.

Take SSWIHEIDSILGNKPYSKKDYRS [I3W]: the protein stability index turned out to be 1.72.

For the variant SSKIHEIDSILGNKPYSKKDYRS [I3K], the protein stability index is 2.78.

In the case of SSFIHEIDSILGNKPYSKKDYRS [I3F], the protein stability index was 2.83.

SSTIHEIDSILGNKPYSKKDYRS [I3T]: the protein stability index came to 4.58.

For the variant SSYIHEIDSILGNKPYSKKDYRS [I3Y], the protein stability index worked out at 3.17.

For the variant SEIIHEIDSILGNKPYSKKDYRS [S2E], the protein stability index turned out to be 4.02.

As for SFIIHEIDSILGNKPYSKKDYRS [S2F], the protein stability index worked out at 2.4.

With SIIIHEIDSILGNKPYSKKDYRS [S2I], the protein stability index was found to be 1.72.

Consider SDIIHEIDSILGNKPYSKKDYRS [S2D], for which the protein stability index was 3.81.

SNIIHEIDSILGNKPYSKKDYRS [S2N]: the protein stability index was 3.43.

For the variant SYIIHEIDSILGNKPYSKKDYRS [S2Y], the protein stability index turned out to be 2.24.

SWIIHEIDSILGNKPYSKKDYRS [S2W]: the protein stability index came to 2.66.

For SQIIHEIDSILGNKPYSKKDYRS [S2Q], the protein stability index was 3.07.

Regarding SRIIHEIDSILGNKPYSKKDYRS [S2R], the protein stability index stood at 3.13.

For the variant SLIIHEIDSILGNKPYSKKDYRS [S2L], the protein stability index is 1.77.

Turning to SGIIHEIDSILGNKPYSKKDYRS [S2G], the protein stability index was found to be 3.2.

Turning to SHIIHEIDSILGNKPYSKKDYRS [S2H], the protein stability index came to 2.31.

As for SKIIHEIDSILGNKPYSKKDYRS [S2K], the protein stability index is 1.66.

For the variant SPIIHEIDSILGNKPYSKKDYRS [S2P], the protein stability index came to 3.68.

Regarding STIIHEIDSILGNKPYSKKDYRS [S2T], the protein stability index was determined as 3.75.

On to SMIIHEIDSILGNKPYSKKDYRS [S2M], for which the protein stability index is 1.98.

Regarding SCIIHEIDSILGNKPYSKKDYRS [S2C], the protein stability index was 2.22.

As for SAIIHEIDSILGNKPYSKKDYRS [S2A], the protein stability index amounted to 2.89.

Consider SVIIHEIDSILGNKPYSKKDYRS [S2V], for which the protein stability index worked out at 1.89.

Consider SSIIHYIDSILGNKPYSKKDYRS [E6Y], for which the protein stability index turned out to be 1.69.

As to SSIIHCIDSILGNKPYSKKDYRS [E6C], the protein stability index was 1.94.

As for SSIIHSIDSILGNKPYSKKDYRS [E6S], the protein stability index was 2.66.

Consider SSIIHWIDSILGNKPYSKKDYRS [E6W], for which the protein stability index was 3.44.

As for SSIIHLIDSILGNKPYSKKDYRS [E6L], the protein stability index amounted to 3.25.

On to SSIIHKIDSILGNKPYSKKDYRS [E6K], for which the protein stability index was determined as 3.21.

With SSIIHIIDSILGNKPYSKKDYRS [E6I], the protein stability index was 2.01.

As to SSIIHTIDSILGNKPYSKKDYRS [E6T], the protein stability index was 2.23.

With SSIIHVIDSILGNKPYSKKDYRS [E6V], the protein stability index is 3.15.

Take SSIIHGIDSILGNKPYSKKDYRS [E6G]: the protein stability index worked out at 2.82.

On to SSIIHFIDSILGNKPYSKKDYRS [E6F], for which the protein stability index is 3.61.

SSIIHHIDSILGNKPYSKKDYRS [E6H]: the protein stability index was found to be 2.31.

As for SSIIHNIDSILGNKPYSKKDYRS [E6N], the protein stability index came out at 3.65.

Take SSIIHRIDSILGNKPYSKKDYRS [E6R]: the protein stability index was 2.26.

For SSIIHQIDSILGNKPYSKKDYRS [E6Q], the protein stability index was found to be 2.62.

SSIIHDIDSILGNKPYSKKDYRS [E6D]: the protein stability index was 2.97.

Regarding SSIIHAIDSILGNKPYSKKDYRS [E6A], the protein stability index amounted to 1.72.

As to SSIIHPIDSILGNKPYSKKDYRS [E6P], the protein stability index is 2.9.

On to SSIIAEIDSILGNKPYSKKDYRS [H5A], for which the protein stability index turned out to be 3.83.

In the case of SSIIFEIDSILGNKPYSKKDYRS [H5F], the protein stability index was 2.21.

As for SSIITEIDSILGNKPYSKKDYRS [H5T], the protein stability index is 3.6.

SSIICEIDSILGNKPYSKKDYRS [H5C]: the protein stability index turned out to be 2.42.

Consider SSIIKEIDSILGNKPYSKKDYRS [H5K], for which the protein stability index amounted to 3.83.

For SSIIDEIDSILGNKPYSKKDYRS [H5D], the protein stability index is 3.7.

In the case of SSIIVEIDSILGNKPYSKKDYRS [H5V], the protein stability index stood at 2.38.

Turning to SSIIPEIDSILGNKPYSKKDYRS [H5P], the protein stability index was 3.09.

Regarding SSIIWEIDSILGNKPYSKKDYRS [H5W], the protein stability index was determined as 2.2.

For SSIIEEIDSILGNKPYSKKDYRS [H5E], the protein stability index is 2.7.

Regarding SSIIGEIDSILGNKPYSKKDYRS [H5G], the protein stability index stood at 3.07.

On to SSIINEIDSILGNKPYSKKDYRS [H5N], for which the protein stability index was 3.44.

Consider SSIILEIDSILGNKPYSKKDYRS [H5L], for which the protein stability index is 2.21.

As for SSIISEIDSILGNKPYSKKDYRS [H5S], the protein stability index was 2.98.

On to SSIIQEIDSILGNKPYSKKDYRS [H5Q], for which the protein stability index came to 3.02.

Regarding SSIIIEIDSILGNKPYSKKDYRS [H5I], the protein stability index was found to be 1.48.

As to SSIIYEIDSILGNKPYSKKDYRS [H5Y], the protein stability index amounted to 2.05.

Consider SSIIREIDSILGNKPYSKKDYRS [H5R], for which the protein stability index was found to be 3.64.

Consider SSIIMEIDSILGNKPYSKKDYRS [H5M], for which the protein stability index amounted to 1.76.

In the case of ESIIHEIDSILGNKPYSKKDYRS [S1E], the protein stability index was 2.82.

As for TSIIHEIDSILGNKPYSKKDYRS [S1T], the protein stability index amounted to 2.6.
